Source: patent publication US20210388081A1 (Memorial Sloan Kettering, published 2021)

T1: FcRL2, overexpressed on 3T3 cells (UniProt Q96LA5 20-508, limits assumed)
T1 construct: whole, on cells
T1 sequence (looked up): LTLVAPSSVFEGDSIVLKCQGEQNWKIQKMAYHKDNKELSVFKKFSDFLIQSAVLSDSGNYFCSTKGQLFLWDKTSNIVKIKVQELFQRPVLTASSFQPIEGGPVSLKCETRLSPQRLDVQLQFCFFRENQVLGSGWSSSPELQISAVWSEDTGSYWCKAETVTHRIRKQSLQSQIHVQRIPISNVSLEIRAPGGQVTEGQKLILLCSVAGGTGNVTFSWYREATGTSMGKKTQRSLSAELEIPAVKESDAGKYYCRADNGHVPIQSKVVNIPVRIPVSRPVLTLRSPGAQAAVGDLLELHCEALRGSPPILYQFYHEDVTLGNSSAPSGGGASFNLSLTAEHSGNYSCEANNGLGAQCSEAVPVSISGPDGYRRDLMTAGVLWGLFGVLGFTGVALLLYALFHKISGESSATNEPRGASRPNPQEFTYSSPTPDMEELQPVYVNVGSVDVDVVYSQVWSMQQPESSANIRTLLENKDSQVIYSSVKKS

T2: FcRL4, overexpressed on 3T3 cells (UniProt Q96PJ5 20-515, limits assumed)
T2 construct: whole, on cells
T2 sequence (looked up): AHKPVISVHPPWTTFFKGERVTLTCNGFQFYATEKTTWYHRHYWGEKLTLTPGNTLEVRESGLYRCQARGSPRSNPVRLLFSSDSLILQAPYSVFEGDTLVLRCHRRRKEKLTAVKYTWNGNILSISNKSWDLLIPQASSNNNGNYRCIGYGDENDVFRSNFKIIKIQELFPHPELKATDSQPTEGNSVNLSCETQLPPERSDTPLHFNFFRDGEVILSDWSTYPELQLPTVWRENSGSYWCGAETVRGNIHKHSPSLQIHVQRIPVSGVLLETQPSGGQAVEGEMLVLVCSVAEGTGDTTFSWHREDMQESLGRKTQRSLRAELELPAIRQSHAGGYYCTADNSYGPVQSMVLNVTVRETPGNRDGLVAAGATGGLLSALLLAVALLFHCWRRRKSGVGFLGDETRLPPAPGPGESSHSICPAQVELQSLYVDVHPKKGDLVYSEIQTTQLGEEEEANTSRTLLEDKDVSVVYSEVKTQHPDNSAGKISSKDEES

T3: FcRL6, overexpressed on 3T3 cells (UniProt Q6DN72 20-434, limits assumed)
T3 construct: whole, on cells
T3 sequence (looked up): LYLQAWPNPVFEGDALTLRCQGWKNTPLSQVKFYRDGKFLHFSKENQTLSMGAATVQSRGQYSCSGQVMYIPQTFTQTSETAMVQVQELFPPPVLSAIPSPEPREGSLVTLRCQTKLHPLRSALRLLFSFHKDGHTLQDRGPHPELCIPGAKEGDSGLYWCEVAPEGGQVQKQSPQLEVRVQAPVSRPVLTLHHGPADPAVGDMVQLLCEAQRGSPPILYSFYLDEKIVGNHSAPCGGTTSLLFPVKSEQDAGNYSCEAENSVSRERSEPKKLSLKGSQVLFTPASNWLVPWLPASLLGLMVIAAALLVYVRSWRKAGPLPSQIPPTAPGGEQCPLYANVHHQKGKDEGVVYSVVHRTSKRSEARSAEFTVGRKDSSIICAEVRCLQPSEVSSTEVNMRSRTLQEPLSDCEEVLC

T4: Fc Receptor-like 5 (FcRL5), full length, overexpressed on 3T3 or Raji cells (human, UniProt Q96RD9 16-977)
T4 construct: also called 3T3-FcRL5
T4 sequence: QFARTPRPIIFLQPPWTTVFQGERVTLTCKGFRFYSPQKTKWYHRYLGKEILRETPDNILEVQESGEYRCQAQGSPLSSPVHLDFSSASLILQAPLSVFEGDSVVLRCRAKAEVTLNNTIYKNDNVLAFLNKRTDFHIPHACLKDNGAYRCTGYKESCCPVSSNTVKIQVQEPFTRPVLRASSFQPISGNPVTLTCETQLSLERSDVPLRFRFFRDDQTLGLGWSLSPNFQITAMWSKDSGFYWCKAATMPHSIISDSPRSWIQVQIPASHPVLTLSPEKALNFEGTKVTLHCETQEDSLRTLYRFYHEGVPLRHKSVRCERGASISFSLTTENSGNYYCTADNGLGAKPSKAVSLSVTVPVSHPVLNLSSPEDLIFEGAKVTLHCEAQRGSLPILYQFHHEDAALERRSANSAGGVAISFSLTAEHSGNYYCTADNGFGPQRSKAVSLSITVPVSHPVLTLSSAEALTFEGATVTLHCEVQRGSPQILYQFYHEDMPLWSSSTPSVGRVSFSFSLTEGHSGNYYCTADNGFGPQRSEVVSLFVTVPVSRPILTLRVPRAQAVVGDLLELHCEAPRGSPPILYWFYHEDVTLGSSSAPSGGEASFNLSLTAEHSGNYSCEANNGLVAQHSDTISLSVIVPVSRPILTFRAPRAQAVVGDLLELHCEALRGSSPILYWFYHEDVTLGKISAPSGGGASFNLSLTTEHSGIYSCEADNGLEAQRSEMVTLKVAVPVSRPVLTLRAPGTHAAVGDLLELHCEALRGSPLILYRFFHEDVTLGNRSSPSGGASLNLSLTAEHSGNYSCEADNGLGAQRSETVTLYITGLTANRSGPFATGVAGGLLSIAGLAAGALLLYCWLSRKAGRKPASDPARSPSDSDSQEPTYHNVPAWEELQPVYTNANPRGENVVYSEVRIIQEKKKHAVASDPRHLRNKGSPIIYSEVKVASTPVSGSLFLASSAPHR


Key:
SLAMF9 protein = SLAMF9 protein (UniProt Q96A28 19-236, limits assumed); experiment: phage clone on SLAMF9 protein
Chain of SLAMF9 protein (Q96A28 19-236 limits assumed): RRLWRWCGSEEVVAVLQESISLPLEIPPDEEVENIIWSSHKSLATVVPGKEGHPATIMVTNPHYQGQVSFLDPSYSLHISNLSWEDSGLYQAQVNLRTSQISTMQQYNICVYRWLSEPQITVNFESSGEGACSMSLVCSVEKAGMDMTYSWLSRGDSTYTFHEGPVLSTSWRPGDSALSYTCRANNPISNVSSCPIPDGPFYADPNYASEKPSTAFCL

[1] = target: T1, FcRL2, overexpressed on 3T3 cells; experiment: phage clone on 3T3-FcRL2 cells
[2] = target: T2, FcRL4, overexpressed on 3T3 cells; experiment: phage clone on 3T3-FcRL4 cells
[3] = target: T3, FcRL6, overexpressed on 3T3 cells; experiment: phage clone on 3T3-FcRL6 cells
[4] = target: T4, Fc Receptor-like 5 (FcRL5), full …; experiment: phage clone screening on cells
Method in brief: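 scFv phage clones were incubated with live 3T3 cells overexpressing full-length FcRL5, then detected with mouse anti-M13 mAb and PE-anti-mouse Ig by flow cytometry. 3T3 cells expressing FcRL1, 2, 3, 4 or 6 served as negative-control targets.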

Row | Binder | binding result (SLAMF9 protein) | binding result [1] | binding result [2] | binding result [3] | binding result [4]
1 | ET200-097 (scFv, screened as phage clone; entry is VL-linker-VH-His tag-HA tag) scFv: LPVLTQPPSVSVSPGQTAIITCSGDKLGEKYVSWYQQKPGQSPVLVIDQDTRRPSGIPERFSGSNSGTTATLTISGTQAMDEADYYCQAWDRGVVFGGGTKLTVLGSRGGGGSGGGGSGGGGSLEMAEVQLVESGGDLVQPGRSLRLSCAASGFTFNDYAMHWVRQAPGKGLEWVSGISWSGNNIGYADSVKGRFTISRDNAKNSLYLQMNSLRAEDTALYYCAKDSIRYGITWGGFDYWGQGTLVTVSSTSGQAGQHHHHHHGAYPYDVPDYAS | no binding | no binding | no binding | no binding | binds
2 | ET200-098 (scFv, screened as phage clone; entry is VL-linker-VH-His tag-HA tag) scFv: QPVLTQPPSVSKGLRQTATLTCTGNSNNVGNLGVAWLQQHQGHPPKLLSYRNNNRPSGISERLSASRSGNTASLTITGLQPEDEADYYCSAWDSSLSAWVFGGGTKLTVLGSRGGGGSGGGGSGGGGSLEMAEVQLVESGGVVVQPGGSLRLSCAASGFTFDDYAMHWVRQAPGKGLEWVSLINWDGGSTYYADSVKGRFTISRDNSKNSLYLQMNSLRAEDTALYYCAKGMGLRAFDYWGQGTLVTVSSTSGQAGQHHHHHHGAYPYDVPDYAS | no binding | no binding | no binding | no binding | binds
3 | ET200-100 (scFv, screened as phage clone; entry is VL-linker-VH-His tag-HA tag) scFv: NFMLTQPHSVSESPGKTVTISCTRSSGSIASNFVQWYQQRPGSAPTPMIYEDNNRPPGVPDRFSASVDSSSNSASLTISGLKTEDEADYYCQSYDTSNVVFGGGTKLTVLGSRGGGGSGGGGSGGGGSLEMAEVQLVESGGGLVQPGGSLRLSCAASGFTFSSYEMNWVRQAPGKGLEWVSYISSSGSTIYYADSVKGRFTISRDNAKNSLYLQMNSLRAEDTAVYYCARWDYGMDVWGQGTTVTVSSTSGQAGQHHHHHHGAYPYDVPDYAS | no binding | no binding | no binding | no binding | binds
4 | ET200-104 (scFv, screened as phage clone; entry is VL-linker-VH-His tag-HA tag) scFv: NFMLTQPHSVSESPGKTVTISCTRSSGSIASNYVQWYQQRPGSAPTTVIYEDNQRPSGVPDRFSGSIDSSSNSASLTISGLKTEDEADYYCQSYDSSNVVFGGGTKVTVLGSRGGGGSGGGGSGGGGSLEMAEVQLVESGGGLVQPGGSLRLSCAASGFTFSSYEMNWVRQAPGKGLEWVSYISSSGSTIYYADSVKGRFTISRDNAKNSLYLQMNSLRAEDTAVYYCARWDYGMDVWGQGTTVTVSSTSGQAGQHHHHHHGAYPYDVPDYAS | no binding | no binding | no binding | no binding | binds
5 | ET200-099 (scFv, screened as phage clone; entry is VL-linker-VH-His tag-HA tag) scFv: QSVLTQPPSASGTPGQRVTISCSGSSSNIGSNTVNWYQQLPGTAPKLLIYSNDQRPSGVPDRFSGSKSGTSASLAISGLQSEDEADYYCASWDDSLNGRYVFGTGTKVTVLGSRGGGGSGGGGSGGGGSLEMAQVQLVQSGAEVRKPGASVKVSCKTSGYTFSWYAIHWVRQAPGQRLEWMGWINAGNGNTKYSQKFQGRVSLTRDTSASTAYMELSSLRSDDTAVYYCARPDNYGSGGDVFDIWGQGTMVTVSSTSGQAGQHHHHHHGAYPYDVPDYAS | no binding | no binding | no binding | no binding | binds
6 | ET200-006 (scFv, screened as phage clone; entry is VL-linker-VH-His tag-HA tag) scFv: SYVLTQPPSVSVAPGKTARITCGGNNIGSKSVHWYQQKPGQAPVVVIHYDSDRPSGIPERFSGSNSGNTATLTISRVEAGDEADYYCQVWDSSSDHPYVFGTGTKVTVLGSRGGGGSGGGGSGGGGSLEMAEVQLVQSGAEVKKPGASVKVSCKASGYTFTTYGISWVRQAPGQGLEWMGWINTYNGHTNYAQKLQGRATMTADTSTNTAYMELRSLRSDDTAVYYCARVIYGSGDYWGQGTLVTVSSTSGQAGQHHHHHHGAYPYDVPDYAS | no binding | no binding | no binding | no binding | binds
7 | ET200-102 (scFv, screened as phage clone; entry is VL-linker-VH-His tag-HA tag) scFv: QSVVTQPPSVSAAPGQKVTISCSGSSSNIGNNYVSWYQQLPGTAPKLLIYDNNKRPSGIPDRFSGSKSGTSATLGITGLQTGDEADYYCGTWDSSLSAYVFGTGTKVTVLGSRGGGGSGGGGSGGGGSLEMAQVQLVQSGAEVKKPGASVKVSCKASGYTFTNYALHWVRQAPGQGLEWMAWINGGNGNTKYSQNFQGRVTITRDTSASTAYMELSSLRSEDTAVYYCAKPEETAGTIHFDYWGQGTPVTVSSTSGQAGQHHHHHHGAYPYDVPDYAS | no binding | no binding | no binding | no binding | binds
8 | ET200-101 (scFv, screened as phage clone; entry is VL-linker-VH-His tag-HA tag) scFv: QAVLTQPPSASGAPGQRVTVSCSGSNSNIGSNYVNWYQQFPGTAPKLLMYSSSQRPSGVPDRFSGSKSGTSASLAISGLHSEDEADYYCATWDDSLNAWVFGGGTKLTVLGSRGGGGSGGGGSGGGGSLEMAEVQLVQSGAEVRKPGASVKVSCKTSGYTFTWYAIHWVRQAPGQRLEWMGWINAGSGNTKYSQKFQGRVTLTRDTSASTAYMELSSLRSDDTAVYYCARPNNYGSGGDVFDIWGQGTMVTVSSTSGQAGQHHHHHHGAYPYDVPDYAS | no binding | no binding | no binding | no binding | binds
